Where two headings read alike, the source gives them in different places.

This passage reports interaction score results from PMC10397247.

One experiment concerns the target T1, P6-AA-12HGe-A.
T1 chain: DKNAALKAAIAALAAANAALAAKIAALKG
Kind of experiment: two-hybrid library CCmax.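 Also: natural log of median RNA to DNA barcode read ratio; higher means stronger binding.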 The conditions noted are these: mean of both orientations.

In the next experiment the target is T2, P6-AA-12HGe-D.
T2 chain: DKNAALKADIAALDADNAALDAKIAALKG
Kind of experiment: two-hybrid library CCmax.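 Also: natural log of median RNA to DNA barcode read ratio; higher means stronger binding.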

The target in a further experiment is T3, P6-AA-12HGe-H.
T3 chain: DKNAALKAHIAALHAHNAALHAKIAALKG
As to the kind of experiment: two-hybrid library CCmax.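 Also: natural log of median RNA to DNA barcode read ratio; higher means stronger binding.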 The settings on record: mean of both orientations.

The next experiment deals with T4, P6-AA-12HGe-K.
T4 chain: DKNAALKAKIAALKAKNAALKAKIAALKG
As to the kind of experiment: two-hybrid library CCmax.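 Also: natural log of median RNA to DNA barcode read ratio; higher means stronger binding.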 The conditions noted are these: mean of both orientations.

The target of a further experiment is T5, P6-AA-12HGe-M.
T5 chain: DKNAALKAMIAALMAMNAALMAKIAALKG
Kind of experiment: two-hybrid library CCmax.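 Also: natural log of median RNA to DNA barcode read ratio; higher means stronger binding.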 The settings on record: mean of both orientations.

For another experiment, the target named is T6, P6-AA-12HGe-Q.
T6 chain: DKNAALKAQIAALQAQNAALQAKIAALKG
As to the kind of experiment: two-hybrid library CCmax.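 Also: natural log of median RNA to DNA barcode read ratio; higher means stronger binding.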 The conditions noted are these: mean of both orientations.

In a further experiment the target is T7, P6-AA-12HGe-R.
T7 chain: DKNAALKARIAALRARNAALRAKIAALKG
As to the kind of experiment: two-hybrid library CCmax. The settings on record: mean of both orientations.

A further experiment addresses T8, P6-AA-12HGe-S.
T8 chain: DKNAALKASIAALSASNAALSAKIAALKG
Kind of experiment: two-hybrid library CCmax. The conditions noted are these: mean of both orientations.

The target of the next experiment is T9, P6-AA-12HGe-T.
T9 chain: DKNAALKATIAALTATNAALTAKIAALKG
Kind of experiment: two-hybrid library CCmax. The conditions noted are these: mean of both orientations.

For a further experiment, the target named is T10, P6-AA-12HGe-W.
T10 chain: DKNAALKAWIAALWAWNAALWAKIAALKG
As to the kind of experiment: two-hybrid library CCmax. The settings on record: mean of both orientations.

In a further experiment the target is T11, 4H3462-bN.
T11 chain: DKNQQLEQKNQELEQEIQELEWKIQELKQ
Kind of experiment: two-hybrid library CCNG1.

The target in another experiment is T12, 4H3497-bN.
T12 chain: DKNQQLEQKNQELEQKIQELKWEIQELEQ
As to the kind of experiment: two-hybrid library CCNG1.

In another experiment the target is T13, 4H3613-bN.
T13 chain: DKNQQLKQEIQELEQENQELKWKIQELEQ
Kind of experiment: two-hybrid library CCNG1.

For the next experiment, the target named is T14, 4H3628-bN.
T14 chain: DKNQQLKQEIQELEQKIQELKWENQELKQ
Kind of experiment: two-hybrid library CCNG1.

The next experiment deals with T15, 4H3926-bN.
T15 chain: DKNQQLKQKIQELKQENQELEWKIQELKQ
As to the kind of experiment: two-hybrid library CCNG1.

Another experiment has as its target T16, 4H591-bN.
T16 chain: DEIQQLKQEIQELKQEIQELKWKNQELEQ
Kind of experiment: two-hybrid library CCNG1.

Another experiment deals with T17, 4H626-bN.
T17 chain: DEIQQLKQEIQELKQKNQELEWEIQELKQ
As to the kind of experiment: two-hybrid library CCNG1.

The target in the next experiment is T18, 4H906-bN.
T18 chain: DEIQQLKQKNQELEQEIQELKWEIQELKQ
As to the kind of experiment: two-hybrid library CCNG1.

A further experiment addresses T19, O8-bP.
T19 chain: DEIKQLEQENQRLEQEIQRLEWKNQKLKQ
Kind of experiment: two-hybrid library CCNG1.

Another experiment concerns the target T20, 4H3010-bN.
T20 chain: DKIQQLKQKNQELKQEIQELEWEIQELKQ
As to the kind of experiment: two-hybrid library CCNG1.

In the next experiment the target is T21, 4H3112-bN.
T21 chain: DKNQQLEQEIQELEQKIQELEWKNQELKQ
Kind of experiment: two-hybrid library CCNG1.

The next experiment has as its target T22, 4H3427-bN.
T22 chain: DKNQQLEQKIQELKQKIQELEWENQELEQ
Kind of experiment: two-hybrid library CCNG1.

The target of the next experiment is T23, 4H346-bN.
T23 chain: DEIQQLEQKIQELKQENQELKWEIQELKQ
Kind of experiment: two-hybrid library CCNG1.

A further experiment concerns the target T24, 4H4073-bN.
T24 chain: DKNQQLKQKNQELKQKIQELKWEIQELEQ
Kind of experiment: two-hybrid library CCNG1.

Another experiment has as its target T25, 4H457-bN.
T25 chain: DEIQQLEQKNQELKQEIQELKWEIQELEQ
As to the kind of experiment: two-hybrid library CCNG1.

The target of a further experiment is T26, 4H575-bN.
T26 chain: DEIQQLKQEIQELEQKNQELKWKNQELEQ
As to the kind of experiment: two-hybrid library CCNG1.

Another experiment concerns the target T27, 4H683-bN.
T27 chain: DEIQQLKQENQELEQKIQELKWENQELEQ
As to the kind of experiment: two-hybrid library CCNG1.

The next experiment addresses T28, 4H754-bN.
T28 chain: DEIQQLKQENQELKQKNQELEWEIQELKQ
Kind of experiment: two-hybrid library CCNG1.

The target of a further experiment is T29, 4H780-bN.
T29 chain: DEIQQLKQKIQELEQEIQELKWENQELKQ
Kind of experiment: two-hybrid library CCNG1.

The target in the next experiment is T30, 4H797-bN.
T30 chain: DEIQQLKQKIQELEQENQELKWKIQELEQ
Kind of experiment: two-hybrid library CCNG1.

Another experiment deals with T31, 4H855-bN.
T31 chain: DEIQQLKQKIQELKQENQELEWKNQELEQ
Kind of experiment: two-hybrid library CCNG1.

A further experiment addresses T32, 4H918-bN.
T32 chain: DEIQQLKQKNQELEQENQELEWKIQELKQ
As to the kind of experiment: two-hybrid library CCNG1.

In another experiment the target is T33, 4H953-bN.
T33 chain: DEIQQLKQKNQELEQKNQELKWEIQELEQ
As to the kind of experiment: two-hybrid library CCNG1.

The target of a further experiment is T34, 4H968-bN.
T34 chain: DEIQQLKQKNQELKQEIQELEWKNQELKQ
Kind of experiment: two-hybrid library CCNG1.

B1: P5-AA-12HGe-M (peptide)
chain: DENAALEAMIAALMAMNAALMAEIAALEG
As to B1, the interaction score with P6-AA-12HGe-A is 1.15; with P6-AA-12HGe-D it was -1.48; with P6-AA-12HGe-H it was -0.103; with P6-AA-12HGe-K, 1.12; in the experiment with P6-AA-12HGe-M, 0.995; with P6-AA-12HGe-Q, 2.16. In addition, the interaction score with P6-AA-12HGe-R is 0.594; with P6-AA-12HGe-S, -0.47; in the experiment with P6-AA-12HGe-T, 1.54; with P6-AA-12HGe-W, -0.0463.

B2: 4H3462-bN (peptide)
chain: DKNQQLEQKNQELEQEIQELEWKIQELKQ
Consider B2, for which the interaction score with 4H3462-bN was 0.127; with 4H3497-bN, 0.781; with 4H3613-bN it was -0.0373; with 4H3628-bN, 0.522; with 4H3926-bN it was -0.216; in the experiment with 4H591-bN, -0.826. The interaction score with 4H626-bN was 0.696; with 4H906-bN it was -0.328; with O8-bP, -2.6.

B3: P5-AA-12HGe-E (peptide)
chain: DENAALEAEIAALEAENAALEAEIAALEG
Take B3: the interaction score with P6-AA-12HGe-A is 1.23; with P6-AA-12HGe-D (mean of both orientations), -1.51; with P6-AA-12HGe-H it was 2.11; with P6-AA-12HGe-K, 1.8; with P6-AA-12HGe-M, 0.542; with P6-AA-12HGe-Q it was 2.02. Also, the interaction score in the experiment with P6-AA-12HGe-R is 1.58; in the experiment with P6-AA-12HGe-S, -0.0947; with P6-AA-12HGe-T, 0.892; with P6-AA-12HGe-W it was -0.981.

B4: 4H3010-bN (peptide)
chain: DKIQQLKQKNQELKQEIQELEWEIQELKQ
For the molecule B4, the interaction score with 4H3010-bN is -0.256; with 4H3112-bN it was -1.33; in the experiment with 4H3427-bN, -0.668; with 4H346-bN it was -1.97; with 4H3926-bN, -0.546; with 4H4073-bN, -1.32. Also, the interaction score in the experiment with 4H457-bN was -0.409; with 4H575-bN, -1.47; in the experiment with 4H683-bN it was 1.02; in the experiment with 4H754-bN, -1.56; with 4H780-bN, -0.214; with 4H797-bN, -0.873. For the same molecule, the interaction score with 4H855-bN was -0.686; with 4H918-bN, -0.536; with 4H953-bN, -1.77; with 4H968-bN, -1.13.

B5: P5-AA-12HGe-R (peptide)
chain: DENAALEARIAALRARNAALRAEIAALEG
In the case of B5, the interaction score with P6-AA-12HGe-A was 0.13; with P6-AA-12HGe-D (mean of both orientations) it was -0.685; in the experiment with P6-AA-12HGe-H, -1.35; with P6-AA-12HGe-K, -0.748; with P6-AA-12HGe-M, -0.376; in the experiment with P6-AA-12HGe-Q, 1.15. For the same molecule, the interaction score with P6-AA-12HGe-R is -1.36; in the experiment with P6-AA-12HGe-S, -0.593; with P6-AA-12HGe-T, -0.204; in the experiment with P6-AA-12HGe-W it was -1.7.

B6: P5-AA-12HGe-Q (peptide)
chain: DENAALEAQIAALQAQNAALQAEIAALEG
As for B6, the interaction score in the experiment with P6-AA-12HGe-A was 1.19; in the experiment with P6-AA-12HGe-D (mean of both orientations), -1.9; with P6-AA-12HGe-H, -0.211; with P6-AA-12HGe-K, 1.68; in the experiment with P6-AA-12HGe-M, 1.12; in the experiment with P6-AA-12HGe-Q, 1.76. Moreover, the interaction score with P6-AA-12HGe-R is 1.09; with P6-AA-12HGe-S it was 0.0975; with P6-AA-12HGe-T, 1.2; with P6-AA-12HGe-W, -1.08.
